Measurements taken from article PMC7768477 (Antibodies, 2020).

Assays:
[1] = molecular target: T1, Lassa NPc (C-terminal portion of NP encoding residues 341-569) (Lassa virus lineage IV, strain Josiah, UniProt P13699); assay: SPR; ProteOn XPR36; […] (20 ug/mL in 10 mM sodium acetate pH 5.0); […]; conditions: both partners purified
T1 construct: source: bought: Zalgen (recombinant)

[2] = molecular target: T2, Lassa NPn (N-terminal portion of NP encoding residues 1-340) (Lassa virus lineage IV, strain Josiah, UniProt P13699); assay: SPR; ProteOn XPR36; […] (20 ug/mL in 10 mM sodium acetate pH 5.0); […]; Langmuir model; conditions: both partners purified
T2 construct: source: bought: Zalgen (recombinant)
T2 sequence (P13699 1-340): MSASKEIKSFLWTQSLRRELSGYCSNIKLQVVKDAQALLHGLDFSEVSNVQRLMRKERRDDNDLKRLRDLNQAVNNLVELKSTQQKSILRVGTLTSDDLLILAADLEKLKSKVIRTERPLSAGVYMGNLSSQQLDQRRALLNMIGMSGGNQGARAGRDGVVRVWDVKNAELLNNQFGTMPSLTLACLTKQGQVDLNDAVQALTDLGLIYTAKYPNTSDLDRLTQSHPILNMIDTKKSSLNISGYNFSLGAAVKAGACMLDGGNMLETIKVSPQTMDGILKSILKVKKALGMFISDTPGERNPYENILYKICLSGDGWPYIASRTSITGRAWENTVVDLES

T1 sequence (P13699 341-569): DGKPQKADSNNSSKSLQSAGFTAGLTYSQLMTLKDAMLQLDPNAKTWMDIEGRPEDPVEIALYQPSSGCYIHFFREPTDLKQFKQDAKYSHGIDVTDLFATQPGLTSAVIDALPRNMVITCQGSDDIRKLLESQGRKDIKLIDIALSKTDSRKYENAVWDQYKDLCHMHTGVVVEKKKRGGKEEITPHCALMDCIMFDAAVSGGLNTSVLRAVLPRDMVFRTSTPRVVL

B1: sdAb E10 (VHH)
VHH: DVQLQASGGGLVQAGASLRLSCAASGFTYTMGWFRQAPGQEREFVAAIARSGGTTYYTDSVKGRFTISRDNAKKTVFLQLNSLKPEDTAVYYCAADALPYSAQSMSTRNPGYWGQGTQVTVSS
notes: source: E. coli Tuner (DE3), periplasmic, purified (osmotic shock, IMAC, gel filtration)
[1]
  binding result: no binding
[2]
  Kd: 69 nM
  koff: 0.13 s⁻¹
  kon: 1.9e+06 M⁻¹ s⁻¹

B2: sdAb E1 (VHH)
VHH: DVQLQASGGGLVQTGGSLRLSCENSGRALRIMGWFRQAPGKEREFVATINRNGESTYYSDSVKGRFTISRDNNKNTVYLQMNNLKPEDTGVYNCAADRPGPTQIKTRADDYDYWGEGTQVTVSS
notes: also called clone E1; source: E. coli Tuner (DE3), periplasmic, purified (osmotic shock, IMAC, gel filtration)
[1]
  binding result: no binding
[2]
  binding result: no binding

B3: sdAb G11 (VHH)
VHH: DVQLQASGGGLVQAGDSLTLSCAASGRTVSPYGVGWFRQAPGREREFVAALSRSGTFTAYADSVKGRFTISRDNAKNTVYLQMNSLKPDDTAVYHCAARSASSYYSTYRKEDDYHYWGQGTQVTVSS
notes: as for B1
[1]
  binding result: no binding
[2]
  Kd: 184 nM
  koff: 0.07 s⁻¹
  kon: 380000 M⁻¹ s⁻¹

B4: sdAb B5 (VHH)
VHH: EVQLQASGGGLAQPGGSLRLSCAASGFTLVYYGIGWFRQAPGKEREGVSCISSNDGSTYYADSVKGRFTISRDAAKNTVYLQMNSLKPEDTAVYYCATELGNTHRGSFFPNRRVERCRTDDFASWGQGTQVTVSS
notes: as for B1
[1]
  binding result: no binding
[2]
  Kd: 19 nM
  koff: 0.0061 s⁻¹
  kon: 320000 M⁻¹ s⁻¹

B5: sdAb F3 (VHH)
VHH: DVQLQASGGGLVQPGGSLRLSCAASGFTLVYYGIGWFRQAPGKEREGVSCISSYDGTTYYADSVKGRFTISRDNAKNTVYLQMNSLKPEDTAVYYCATELGNTHRGSYFPKQRVERCHTGDFASWGQGTQVTVSS
notes: as for B1
[1]
  binding result: no binding
[2]
  Kd: 7.5 nM
  koff: 0.003 s⁻¹
  kon: 400000 M⁻¹ s⁻¹

B6: sdAb H6 (VHH)
VHH: DVQLQASGGGVVQPGGSLRLSCVASGFTLVYYGIGWFRQAPGKEREGVSCISSNDGSTYYADSVKGRFTISRDAAKNTVYLQMNSLKPEDTAVYYCATELGNTHRGSFFPNRRVKRCRTDDFASWGQGTQVTVSS
notes: also called clone H6; Bt-H6; source: E. coli Tuner (DE3), periplasmic, purified (osmotic shock, IMAC, gel filtration)
[1]
  binding result: no binding
[2]
  Kd: 9.3 nM
  koff: 0.0057 s⁻¹
  kon: 610000 M⁻¹ s⁻¹

B7: sdAb E11 (VHH)
VHH: EVQLQASGGGLAQPGGSLRLSCAASGFTLVYYGIGWFRQAPGKEREGVSCISSNDGTTYYADSVKGRFTISRDNAKNTVYLQMNSLKPEDTAVYYCATELGNTHRGSYFPKQRVERCHTGDFASWGQGTQVTVSS
notes: as for B1
[1]
  binding result: no binding
[2]
  Kd: 57 nM
  koff: 0.0076 s⁻¹
  kon: 150000 M⁻¹ s⁻¹

B8: sdAb C7 (VHH)
VHH: EVQLQASGGGLVQPGGSLRLSCVASGFTLVYYGIGWFRQAPGKEREGVSCISSNDGSTYYADSVKGRFTISRDAAKNTMYLQMNSLKPEDTAVYYCATELGNTHRGSFFPNRRVERCRTDDFASWGQGTQVTVSS
notes: as for B1
[1]
  binding result: no binding
[2]
  Kd: 7.5 nM
  koff: 0.0038 s⁻¹
  kon: 510000 M⁻¹ s⁻¹
